These results are taken from article PMC4364741, “Recognition of Neisseria meningitidis by the Long Pentraxin PTX3 and Its Role as an Endogenous Adjuvant” (PLoS ONE, 2015).

The target in this assay is T1, Biotinylated human PTX3 (bPTX3) (human, UniProt P26022 18-381, biotin (sites not given)).
T1 construct: Long pentraxin 3 (PTX3), human, as m1 but biotinylated; secreted by CHO cells and purified from the supernatant; Same protein as m1 with a biotin label; also called human bPTX3
Description: ELISA; bPTX3 (0.56–17.92 pmol) on triplicate wells coated with 125 pmol/well of antigen; bound PTX3 from a standard curve of bPTX3; nonlinear fitting, one site binding curve; apparent. The settings on record: both partners purified.

T1 sequence (P26022 18-381): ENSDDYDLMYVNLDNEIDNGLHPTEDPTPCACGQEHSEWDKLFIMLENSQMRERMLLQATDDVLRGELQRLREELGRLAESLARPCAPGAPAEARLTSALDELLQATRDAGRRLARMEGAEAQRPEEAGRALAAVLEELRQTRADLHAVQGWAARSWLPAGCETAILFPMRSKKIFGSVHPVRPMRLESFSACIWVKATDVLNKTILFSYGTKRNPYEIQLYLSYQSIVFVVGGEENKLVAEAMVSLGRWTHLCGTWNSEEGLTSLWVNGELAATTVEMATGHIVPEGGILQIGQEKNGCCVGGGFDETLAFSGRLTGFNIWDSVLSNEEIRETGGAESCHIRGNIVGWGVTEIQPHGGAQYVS

B1: Genome-derived Neisserial antigen GNA2091 (natural protein, Neisseria meningitidis, UniProt Q9JXE1 1-202, looked up)
chain: CVSAVIGSAAVGAKSAVDRRTTGAQTDDNVMALRIETTARSYLRQNNQTKGYTPQISVVGYNRHLLLLGQVATEGEKQFVGQIARSEQAAEGVYNYITVASLPRTAGDIAGDTWNTSKVRATLLGISPATQARVKIVTYGNVTYVMGILTPEEQAQITQKVSTTVGVQKVITLYQNYVQR
notes: GNA2091, recombinant surface molecule of Neisseria meningitidis
Regarding B1, the Kd is 4 nM.

B2: Genome-derived Neisserial antigen GNA1030 (natural protein)
chain: ATYKVDEYHANARFAIDHFNTSTNVGGFYGLTGSVEFDQAKRDGKIDITIPIANLQSGSQHFTDHLKSADIFDAAQYPDIRFVSTKFNFNGKKLVSVDGNLTMHGKTAPVKLKAEKFNCYQSPMEKTEVCGGDFSTTIDRTKWGMDYLVNVGMTKSVRIDIQIEAAKQ
As for B2, the Kd came out at 37 nM.
